Values quoted from earlier work in article PMC7568816 (Gastroenterology Research and Practice, 2020).

Details: due to proteolytic cleavage by dipeptidyl peptidase IV; ref [15]
Procedure: Endogenous GLP-2 is composed of 33 amino acids and has a short half-life of about 7 minutes due to proteolytic cleavage by dipeptidyl peptidase IV [15]. Chemical substitution of the amino acid alanine to […] at position 2 extends the half-life of GLP-2, and this molecule (teduglutide) is approved for the treatment of short bowel syndrome.

Q: Which half-life does the source give for “Endogenous GLP-2: enteroendocrine hormone composed of 33 amino acids” here?
A: about 7 minutes
